From paper PMC3708532 (RNA, 2013)
Values joined by “and” are separate entries in the source; they are usually repeats but may differ in a detail not shown here. Equal entries are not always repeated.

Key:
cross-linking = biological target: the molecule itself; assay: cross-linking
[1] = biological target: the molecule itself; assay: negative-stain electron microscopy

B1: Schmallenberg virus (SBV) nucleocapsid (N) protein (natural protein)
chain: MSSQFIFEDVPQRNAATFNPEVGYVAFIGKYGQQLNFGVARVFFLNQKKAKMVLHKTAQPSVDLTFGGVKFTVVNNHFPQYVSNPVPDNAITLHRMSGYLARWIADTCKASVLKLAEASAQIVMPLAEVKGCTWADGYTMYLGFAPGAEMFLDAFDFYPLVIEMHRVLKDNMDVNFMKKVLRQRYGTMTAEEWMTQKITEIKAAFNSVGQLAWAKSGFSPAARTFLQQFGINI
stoichiometry N (cross-linking): 3 | stoichiometry N [1]: 4 and 5
